Source: PMC10228819, “Changing course: Glucose starvation drives nuclear accumulation of Hexokinase 2 in S. cerevisiae” (PLOS Genetics, 2023)
Each block holds one molecule with its values, some of them ahead of it.

What was measured:
[1] = target: Hxk2 (hexokinase 2, ScHxk2) (UniProt P04807); experiment: size exclusion chromatography; settings: reference: wild type Hxk2, no glucose; sites S15
[2] = target: the molecule itself; experiment: SEC; TOSOH G2000 SWXL column on HPLC; 40 μg protein in 50 μl; hexokinase buffer (20 mM HEPES, 5 mM Mg acetate, 100 mM NaCl, 0.5 mM EDTA, 0.5 mM DTT) without glucose, no ATP; 1 mL/min

other: SEC elution volume [1]: lost; reference ~8.8
Molecule: Hxk2 (hexokinase 2, ScHxk2) (from UniProt P04807) Hxk2 S15D, no glucose

B1: Recombinant Hxk2, wild type, with C-terminal 6-histidine tag (enzyme, S. cerevisiae)
chain: MVHLGPKKPQARKGSMADVPKELMQQIENFEKIFTVPTETLQAVTKHFISELEKGLSKKGGNIPMIPGWVMDFPTGKESGDFLAIDLGGTNLRVVLVKLGGDRTFDTTQSKYRLPDAMRTTQNPDELWEFIADSLKAFIDEQFPQGISEPIPLGFTFSFPASQNKINEGILQRWTKGFDIPNIENHDVVPMLQKQITKRNIPIEVVALINDTTGTLVASYYTDPETKMGVIFGTGVNGAYYDVCSDIEKLQGKLSDDIPPSAPMAINCEYGSFDNEHVVLPRTKYDITIDEESPRPGQQTFEKMSSGYYLGEILRLALMDMYKQGFIFKNQDLSKFDKPFVMDTSYPARIEEDPFENLEDTDDLFQNEFGINTTVQERKLIRRLSELIGARAARLSVCGIAAICQKRGYKTGHIAADGSVYNRYPGFKEKAANALKDIYGWTQTSLDDYPIKIVPAEDGSGAGAAVIAALAQKRIAEGKSVGIIGA
notes: Hexokinase 2 (Hxk2), S. cerevisiae, cloned into pET14b; also called WT Hxk2; purified Hxk2; source: E. coli, purified (Ni-NTA)
stoichiometry N [2]: 2
